Reference: the RNAGym collection of RNA variant scans (doi:10.1073/pnas.2313332121)

B1: TPR t1 (parent)
chain: GACCAAUCUGCCCUCAGAGCUCGAGAACAUCUUCGGAUGCAGAGGAGGCAGGCUUCGGUGGCGCGAUAGCGCCAACGUCCUCAACCUCCAAUGCAUCCCACCACAUGAUGAUGCCUGAAGAGCCUUGGUUUUUUG

Variants of: B1
Experiment: polymerase ribozyme fitness, log enrichment relative to wild type (log ratio); higher = more active; in vitro selection for triplet polymerase activity
Outline: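 Libraries of mutants in each subunit of a heterodimeric triplet polymerase ribozyme were generated by PCR and transcribed. In triplicate, each went through one in vitro selection round: annealing with biotinylated primer, partner subunit and triplets; frozen incubation at −7 °C; gel excision of extended constructs; streptavidin-bead capture; RT-PCR. Fitness, taken from Illumina sequencing of input and output libraries, is the logarithm of a genotype's enrichment over wild-type enrichment, averaged across replicates with inverse-variance weights. The logarithm is base 2, and genotypes needed ≥10 input reads and ≥1 read per output to be kept.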

Variant	polymerase ribozyme fitness (log ratio)
G23C G69C C94G U96A G113U G120C	-7.12
A26G G69U C70A G113U	-4.8
C28A U132C	-4.37
A24G G69C C85G	-4.96
A26U C62U	-3.59
A26U C53U G69C C115G G117C U133G	-6.29
G25A G47A C72G C76U U87G C114G	-5.41
A27U C94G	-5.02
A26G A74C C88A C115U	-2.88
A27U A41U C49U C72U	-5.06
A26U G39C G47A C82A A118U	-4.78
A26G U78C U106A G113U C115A	-5.3
G23U C70A A91G G107U C114U	-5.99
A24G G60A C80U C88A	-4.67
A24U G39A C72A U112C	-7.11
A24U C28G A84C G120U	-7.73
C28A A50C C82U C115A	-4.58
C28A C85U	-4.56
A27U C53A C72U	-3.4
A27C C53G	-2.64
C28G A41C C64U C115A	-2.93

Variant	polymerase ribozyme fitness (log ratio)
A24G C49G A121C	-0.875
A26G A29G A66U C72G U78A A118U	-3.89
A26U A66G	-4.28
A27G G69C A90C	-4.21
G23U G42U U54G C64G G93C G117C	-6.49
A24U G69U C114G	-7.51
A26U C72A U129A	-4.07
A27U A46G	-2.59
A27G C49G G63U C89G G117C	-7.01
A26C G39C C104U U106A G120A	-5.96
A26G G61C C86U	-4.37
A24U C72U	-5.63
G25U G36U	-6.39
A24G G61U C86G	-3.34
A24C G61A	-6.26
A24U C56A G60A C123U U125A	-5.92
C28A C40G G44C G51A U112A	-6.79
A24G G57C A91G	-2.98
A27G A50U G61A A83G U126G G128C	-5.38
A27U G47U C56U	-4.13
A24G G45C	-3.46

Variant	polymerase ribozyme fitness (log ratio)
A24U G39U G60U C115A U129C	-6.65
G25A C40U G69C G93C C101U C104G C115U A118G	-7.63
A26U C53U C56U	-3.75
A27G G52A C79U	-2.15
A27G C98A	-7.76
G23U G51U C56A G63C G69C C114A A121U	-5.92
A27G A50G C72U U81A	-2
A26C A43G G63C G69A C115G	-4.47
A27U G69U U132C	-1.95
A26G C28G	-2.83
C28A G120C	-2.79
A24G G117C G128A	-6.86
A26C U106A G122A	-2.97
A26U A66G U112G	-5.69
A26U G71C U131A	-4.6
A26C G47U C56U U112C	-5.64
C28A C40G	-6.86
A27G U54C C80U A84U	-2.61
A27U C56G	-4.07
A26G G39A C49U C64U	-3.32
G23C U30C G42U G69A U78G A105C C115G	-7.04

Variant	polymerase ribozyme fitness (log ratio)
A27U C28G G110C	-4
A24G C73A	-1.74
G25A C72A C86G	-6.66
G23U G58A G60C G120C	-7.23
A24G A41C A46U C53A U125A	-4.79
C28A G60A G110U G122A	-0.649
A24G G120U	-1.65
C28G C40A C94U G110C	-0.668
A27U A50C	-3.87
A26C G39U C124G	-4.33
A27C C49G	-4.07
A27U C62A C101U A119U	-5.17
A26G U30C	-4.29
A26G G36A A108U C123G	-5.15
G25U G61U	-5.8
A24G A26G A90C C115U	-2.12
A26U G35U C53U U112C C114U G117A	-7.18
A26C A83C	-5.16
A27G C70U C80A	-4.47
A26U G48U	-3.85
